The text below walks through data of PMC9536601, “Binding of adenovirus species C hexon to prothrombin and the influence of hexon on vector properties in vitro and in vivo” (PLoS Pathogens, 2022).

B3: hexon of wild-type human adenovirus type 2 (on virions) (natural protein)
chain: MATPSMMPQWSYMHISGQDASEYLSPGLVQFARATETYFSLNNKFRNPTVAPTHDVTTDRSQRLTLRFIPVDREDTAYSYKARFTLAVGDNRVLDMASTYFDIRGVLDRGPTFKPYSGTAYNALAPKGAPNSCEWEQTEDSGRAVAEDEEEEDEDEEEEEEEQNARDQATKKTHVYAQAPLSGETITKSGLQIGSDNAETQAKPVYADPSYQPEPQIGESQWNEADANAAGGRVLKKTTPMKPCYGSYARPTNPFGGQSVLVPDEKGVPLPKVDLQFFSNTTSLNDRQGNATKPKVVLYSEDVNMETPDTHLSYKPGKGDENSKAMLGQQSMPNRPNYIAFRDNFIGLMYYNSTGNMGVLAGQASQLNAVVDLQDRNTELSYQLLLDSIGDRTRYFSMWNQAVDSYDPDVRIIENHGTEDELPNYCFPLGGIGVTDTYQAIKANGNGSGDNGDTTWTKDETFATRNEIGVGNNFAMEINLNANLWRNFLYSNIALYLPDKLKYNPTNVEISDNPNTYDYMNKRVVAPGLVDCYINLGARWSLDYMDNVNPFNHHRNAGLRYRSMLLGNGRYVPFHIQVPQKFFAIKNLLLLPGSYTYEWNFRKDVNMVLQSSLGNDLRVDGASIKFDSICLYATFFPMAHNTASTLEAMLRNDTNDQSFNDYLSAANMLYPIPANATNVPISIPSRNWAAFRGWAFTRLKTKETPSLGSGYDPYYTYSGSIPYLDGTFYLNHTFKKVAITFDSSVSWPGNDRLLTPNEFEIKRSVDGEGYNVAQCNMTKDWFLVQMLANYNIGYQGFYIPESYKDRMYSFFRNFQPMSRQVVDDTKYKEYQQVGILHQHNNSGFVGYLAPTMREGQAYPANVPYPLIGKTAVDSITQKKFLCDRTLWRIPFSSNFMSMGALTDLGQNLLYANSAHALDMTFEVDPMDEPTLLYVLFEVFDVVRVHQPHRGVIETVYLRTPFSAGNATT
notes: hexon of human adenovirus type 2 (species C), whole hexon as it stands in the capsid of the virion; Immobilised as whole virions; also called Ad2; source: wild-type virus from ATCC, grown on 293 cells, virions purified by CsCl ultracentrifugation
B5: hexon of wild-type human adenovirus type 5 (on virions) (natural protein)
chain: ATPSMMPQWSYMHISGQDASEYLSPGLVQFARATETYFSLNNKFRNPTVAPTHDVTTDRSQRLTLRFIPVDREDTAYSYKARFTLAVGDNRVLDMASTYFDIRGVLDRGPTFKPYSGTAYNALAPKGAPNPCEWDEAATALEINLEEEDDDNEDEVDEQAEQQKTHVFGQAPYSGINITKEGIQIGVEGQTPKYADKTFQPEPQIGESQWYETEINHAAGRVLKKTTPMKPCYGSYAKPTNENGGQGILVKQQNGKLESQVEMQFFSTTEATAGNGDNLTPKVVLYSEDVDIETPDTHISYMPTIKEGNSRELMGQQSMPNRPNYIAFRDNFIGLMYYNSTGNMGVLAGQASQLNAVVDLQDRNTELSYQLLLDSIGDRTRYFSMWNQAVDSYDPDVRIIENHGTEDELPNYCFPLGGVINTETLTKVKPKTGQENGWEKDATEFSDKNEIRVGNNFAMEINLNANLWRNFLYSNIALYLPDKLKYSPSNVKISDNPNTYDYMNKRVVAPGLVDCYINLGARWSLDYMDNVNPFNHHRNAGLRYRSMLLGNGRYVPFHIQVPQKFFAIKNLLLLPGSYTYEWNFRKDVNMVLQSSLGNDLRVDGASIKFDSICLYATFFPMAHNTASTLEAMLRNDTNDQSFNDYLSAANMLYPIPANATNVPISIPSRNWAAFRGWAFTRLKTKETPSLGSGYDPYYTYSGSIPYLDGTFYLNHTFKKVAITFDSSVSWPGNDRLLTPNEFEIKRSVDGEGYNVAQCNMTKDWFLVQMLANYNIGYQGFYIPESYKDRMYSFFRNFQPMSRQVVDDTKYKDYQQVGILHQHNNSGFVGYLAPTMREGQAYPANFPYPLIGKTAVDSITQKKFLCDRTLWRIPFSSNFMSMGALTDLGQNLLYANSAHALDMTFEVDPMDEPTLLYVLFEVFDVVRVHRPHRGVIETVYLRTPFSAGNATT
notes: hexon of human adenovirus type 5 (species C), whole hexon as it stands in the capsid of the virion; Immobilised as whole virions; also called Ad5; source: wild-type virus from ATCC, grown on 293 cells, virions purified by CsCl ultracentrifugation

Holding throughout (conditions): both partners purified
Test [1] deals with B3. Nature of the test: SPR; Biacore T200; about 300 to 5,000 RU of Ad virions immobilised on a CM5 chip, coagulation factors flowed over at four concentrations, 50 uL/min; running buffer 10 mM HEPES, 150 mM NaCl, 1 mM CaCl2, 0.5 mM MgCl2, 0.1% BSA, 0.05% polysorbate 20, pH 7.4; regeneration with 3 mM EDTA; global fit to a 1:1 kinetic interaction model, double referencing.
The target of test [2] is B5. The test is described as above.
Test [3] has as its target T1, hexon of the E1/E3-deleted Ad5 vector Ad5.0 (wild-type Ad5 capsid, on virions) (human adenovirus 5, UniProt P04133 2-952).
T1 construct: hexon of human adenovirus type 5, unchanged, as it stands in the capsid of the vector; Immobilised as whole vector virions; source: E1/E3-deleted Ad5 vector grown on 293 cells, virions purified by CsCl ultracentrifugation
The description is as above.

In test [4] the target is T2, human prothrombin (coagulation factor II) (human, UniProt P00734 44-622, gamma-carboxylated glutamate residues in the Gla domain).
T2 construct: prothrombin (FII), human, plasma-derived; also called human FII; FII; source: bought: Haematologic Technologies, Inc. (HCP-0010), plasma-derived
The description is as above.

In test [5] the target is T3, human prothrombin (coagulation factor II) (human, UniProt P00734 44-622, γ-carboxylated glutamate residues in the Gla domain (positions not given)).
T3 construct: prothrombin (FII), human, plasma-derived; also called Human FII; FII; source: bought: Haematologic Technologies, Inc. (HCP-0010), plasma-derived; dialyzed
The test is described as follows: SPR; Biacore T200; about 300 to 5,000 RU of Ad virions immobilised on a CM5 chip, coagulation factors flowed over at four concentrations, 50 uL/min; 10 mM HEPES, 150 mM NaCl, 1 mM CaCl2, 0.5 mM MgCl2, 0.1% BSA, 0.05% polysorbate 20, pH 7.4; global fit to a 1:1 kinetic interaction model, double referencing.

B1: bovine prothrombin (coagulation factor II) (natural protein)
chain: not shown
modifications: gamma-carboxylated glutamate residues in the Gla domain
notes: prothrombin (FII), bovine, plasma-derived; also called bovine FII; source: bought: Haematologic Technologies, Inc. (BCP-1010), plasma-derived
For orientation: Kd means the concentration at which binding is half-saturated. A lower Kd goes with tighter binding. Usually koff stands for a measure of how fast the partners let go of each other. Lower therefore signals slow dissociation. As a reminder, the kon is the rate constant with which the complex forms. In test [1], B1 showed a Kd of 140 nM, a koff of 0.00531 s⁻¹ and a kon of 37800 M⁻¹ s⁻¹.

B2: mouse coagulation factor X (natural protein)
chain: ANSFFEEFKKGNLERECMEEICSYEEVREIFEDDEKTKEYWTKYKDGDQCESSPCQNQGACRDGIGGYTCTCSEGFEGKNCELFVRKLCRLDNGDCDQFCREEQNSVVCSCASGYFLGNDGKSCISTAPFPCGKITTGRRKRSVALNTSDSELDLEDALLDEDFLSPTENPIELLNLNETQPERSSDDLVRIVGGRECKDGECPWQALLINEDNEGFCGGTILNEFYILTAAHCLHQARRFKVRVGDRNTEKEEGNEMVHEVDVVIKHNKFQRDTYDYDIAVLRLKTPITFRMNVAPACLPQKDWAESTLMTQKTGIVSGFGRTHEKGRQSNILKMLEVPYVDRNTCKLSTSFSITQNMFCAGYEAKLEDACQGDSGGPHVTRFKNTYYVTGIVSWGEGCARKGKYGIYTKVTTFLKWIDRSMKARVGPTAETPRTAGPPN
modifications: gamma-carboxylated glutamate residues in the Gla domain
notes: coagulation factor X, mouse, plasma-derived; Pretreated with 125 uM GGACK (EGRCK); written here as one entry; also called mouse FX; source: bought: Haematologic Technologies, Inc. (MCX-5050), plasma-derived
In test [1], B2 came in with a koff of 0.00018 s⁻¹ and an on-rate (kon) of 238000 M⁻¹ s⁻¹. Further, in test [2], the koff was determined as 8.4e-05 s⁻¹ and the kon is 242000 M⁻¹ s⁻¹. Further, in test [3], binding was characterised by a dissociation constant (Kd) of 0.32 nM, the off-rate (koff) was found to be 8.61e-05 s⁻¹ and the kon was 266000 M⁻¹ s⁻¹.

Regarding B3, in test [4], the dissociation constant (Kd) came to 4.5 nM, the koff is 0.000393 s⁻¹ and the kon came out at 87400 M⁻¹ s⁻¹.

B4: hexon of Ad5.5 (Ad5 vector, hexon HVR7 VINTDTL), on the virion (natural protein, human adenovirus type 5)
chain: ATPSMMPQWSYMHISGQDASEYLSPGLVQFARATETYFSLNNKFRNPTVAPTHDVTTDRSQRLTLRFIPVDREDTAYSYKARFTLAVGDNRVLDMASTYFDIRGVLDRGPTFKPYSGTAYNALAPKGAPNPCEWDEAATALEINLEEEDDDNEDEVDEQAEQQKTHVFGQAPYSGINITKEGIQIGVEGQTPKYADKTFQPEPQIGESQWYETEINHAAGRVLKKTTPMKPCYGSYAKPTNENGGQGILVKQQNGKLESQVEMQFFSTTEATAGNGDNLTPKVVLYSEDVDIETPDTHISYMPTIKEGNSRELMGQQSMPNRPNYIAFRDNFIGLMYYNSTGNMGVLAGQASQLNAVVDLQDRNTELSYQLLLDSIGDRTRYFSMWNQAVDSYDPDVRIIENHGTEDELPNYCFPLGGVINTDTLTKVKPKTGQENGWEKDATEFSDKNEIRVGNNFAMEINLNANLWRNFLYSNIALYLPDKLKYSPSNVKISDNPNTYDYMNKRVVAPGLVDCYINLGARWSLDYMDNVNPFNHHRNAGLRYRSMLLGNGRYVPFHIQVPQKFFAIKNLLLLPGSYTYEWNFRKDVNMVLQSSLGNDLRVDGASIKFDSICLYATFFPMAHNTASTLEAMLRNDTNDQSFNDYLSAANMLYPIPANATNVPISIPSRNWAAFRGWAFTRLKTKETPSLGSGYDPYYTYSGSIPYLDGTFYLNHTFKKVAITFDSSVSWPGNDRLLTPNEFEIKRSVDGEGYNVAQCNMTKDWFLVQMLANYNIGYQGFYIPESYKDRMYSFFRNFQPMSRQVVDDTKYKDYQQVGILHQHNNSGFVGYLAPTMREGQAYPANFPYPLIGKTAVDSITQKKFLCDRTLWRIPFSSNFMSMGALTDLGQNLLYANSAHALDMTFEVDPMDEPTLLYVLFEVFDVVRVHRPHRGVIETVYLRTPFSAGNATT
notes: hexon of human adenovirus type 5, whole as in the capsid of the virion; HVR7 segment changed; The whole virion was immobilised; source: 293 cells, virions purified by CsCl ultracentrifugation
On to B4, for which, in test [5], the affinity, expressed as Kd, was 233 nM.

In test [4], B5 yielded an equilibrium dissociation constant (Kd) of 39 nM, a dissociation rate constant (koff) of 0.00321 s⁻¹ and a kon of 83500 M⁻¹ s⁻¹.

B6: bovine coagulation factor X (natural protein)
chain: ANSFLEEVKQGNLERECLEEACSLEEAREVFEDAEQTDEFWSKYKDGDQCEGHPCLNQGHCKDGIGDYTCTCAEGFEGKNCEFSTREICSLDNGGCDQFCREERSEVRCSCAHGYVLGDDSKSCVSTERFPCGKFTQGRSRRWAIHTSEDALDASELEHYDPADLSPTESSLDLLGLNRTEPSAGEDGSQVVRIVGGRDCAEGECPWQALLVNEENEGFCGGTILNEFYVLTAAHCLHQAKRFTVRVGDRNTEQEEGNEMAHEVEMTVKHSRFVKETYDFDIAVLRLKTPIRFRRNVAPACLPEKDWAEATLMTQKTGIVSGFGRTHEKGRLSSTLKMLEVPYVDRSTCKLSSSFTITPNMFCAGYDTQPEDACQGDSGGPHVTRFKDTYFVTGIVSWGEGCARKGKFGVYTKVSNFLKWIDKIMKARAGAAGSRGHSEAPATWTVPPPLPL
modifications: gamma-carboxylated glutamate residues in the Gla domain
notes: coagulation factor X, bovine, plasma-derived; Pretreated with 125 uM GGACK (EGRCK); written here as one entry; also called bovine FX; source: bought: Haematologic Technologies, Inc. (BCX-1050), plasma-derived
In test [1], B6 gave an off-rate (koff) of 0.0142 s⁻¹ and a kon of 194000 M⁻¹ s⁻¹. In test [2], this molecule returned an equilibrium dissociation constant (Kd) of 280 nM, a koff of 0.115 s⁻¹ and a kon of 410000 M⁻¹ s⁻¹. In addition, in test [3], the Kd came to 270 nM, the koff came to 0.0711 s⁻¹ and the on-rate constant (kon) worked out at 262000 M⁻¹ s⁻¹.

B7: mouse prothrombin (coagulation factor II) (natural protein)
chain: not shown
modifications: gamma-carboxylated glutamate residues in the Gla domain
notes: prothrombin (FII), mouse, plasma-derived; also called mouse FII
In test [1], B7 came in with a Kd of 5.6 nM, a koff of 0.000393 s⁻¹ and an on-rate (kon) of 69700 M⁻¹ s⁻¹. In test [2], this molecule yielded a dissociation constant (Kd) of 2100 nM, a koff of 0.0518 s⁻¹ and a kon of 24500 M⁻¹ s⁻¹. For the same molecule, in test [3], binding was put at a Kd of 2000 nM, the koff was 0.0361 s⁻¹ and the on-rate (kon) stood at 18000 M⁻¹ s⁻¹.
